The record followed here is patent EP4803548A1 (Beijing Wisdomab Biotechnology Co., Ltd, dated 2026).

Changes are numbered by the printed parent chain. Read-outs that look alike come from different tables or passages of the source.

Test [1] deals with T1, HLA-A02/HBsAg348-357 (…) complex on the cell surface (human; human (Homo sapiens) as printed …). Description: cell-based or functional assay.
Test [2] deals with T1, HLA-A02/HBsAg348-357 (…) complex on the …. The test can be described thus: cell-based or functional assay. The source holds these as a separate data set.
Test [3] has the same target. The test can be described thus: cell-based or functional assay. The source holds these as a separate data set.
Test [4] shares this target. The test can be described thus: cell-based or functional assay. This is another data set of the same source.
Test [5] concerns the target T2, HLA-A02 complex presenting … (MIP-H1-01), disulfide trap single-chain trimer. Description: SPR Biacore T200; method of Section 3.1.
Another test addresses T3, CD3D-CD3E-mFc (human; mouse).
T3 construct: also called antigen CD3D-CD3E-mFc
T3 chain 1: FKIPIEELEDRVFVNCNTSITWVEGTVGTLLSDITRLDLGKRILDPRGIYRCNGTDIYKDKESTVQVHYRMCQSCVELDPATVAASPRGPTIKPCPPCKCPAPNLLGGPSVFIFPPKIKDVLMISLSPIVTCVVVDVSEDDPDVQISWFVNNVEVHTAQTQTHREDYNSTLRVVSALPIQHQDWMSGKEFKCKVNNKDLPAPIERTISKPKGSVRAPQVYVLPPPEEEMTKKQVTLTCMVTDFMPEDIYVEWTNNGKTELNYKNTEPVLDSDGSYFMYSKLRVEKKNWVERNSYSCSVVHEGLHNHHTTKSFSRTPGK
T3 chain 2: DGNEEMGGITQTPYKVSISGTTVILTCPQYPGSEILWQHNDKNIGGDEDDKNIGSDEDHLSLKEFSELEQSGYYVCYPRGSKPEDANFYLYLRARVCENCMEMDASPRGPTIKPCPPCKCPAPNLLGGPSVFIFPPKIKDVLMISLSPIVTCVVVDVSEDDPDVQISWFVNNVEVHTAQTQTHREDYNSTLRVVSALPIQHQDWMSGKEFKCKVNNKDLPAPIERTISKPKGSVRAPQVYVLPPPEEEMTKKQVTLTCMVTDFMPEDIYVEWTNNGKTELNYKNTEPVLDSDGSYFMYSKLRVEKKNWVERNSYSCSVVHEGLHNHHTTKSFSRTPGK
Description: SPR Biacore T200; method of Section 3.1, CD3D-CD3E-mFc as antigen.

In test [6] the target is T2, HLA-A02 complex presenting … ….
Test [7] shares this target. This is another data set of the same source.

B1: TCRm×CD3 bispecific antibody 2N1B5+IMCR (bispecific antibody)
chain 1: QVQLVESGGGSVQAGGSLRLSCAASDDTYMTNCMGWFRQAPGKEREGVAAIYTGGGRAVYADSVRGRFTISQDNAKNTVYLQMNSLKPEDTAMYYCAADWLGPDMTDIQVLGALPWFNYWGQGTLVTVSSGGGGSGGGGSGGGGSQVQLVESGGGSVQAGGSLRLSCAASDDTYMTNCMGWFRQAPGKEREGVAAIYTGGGRAVYADSVRGRFTISQDNAKNTVYLQMNSLKPEDTAMYYCAADWLGPDMTDIQVLGALPWFNYWGQGTLVTVSSASERKSSVECPPCPAPEFEGGPSVFLFPPKPKDTLMISRTPEVTCVVVDVSQEDPEVQFNWYVDGVEVHNAKTKPREEQYNSTYRVVSVLTVLHQDWLNGKEYKCKVSNKALPASIEKTISKAKGQPREPQVCTLPPSQEEMTKNQVSLSCAVKGFYPSDIAVEWESNGQPENNYKTTPPVLDSDGSFFLVSKLTVDKSRWQEGNVFSCSVMHEALHNHYTQKSLSLSPGK
chain 2: not shown
With B1, the “EC50 of activation of Jurkat-Dual cells by targeting antigen peptide-pulsed T2 cells (QUANTI-Luc)” value in test [1] was 2.41 pM. In test [2], the “EC50 of activation of Jurkat-Dual cells by targeting HLA-A02+/HBsAg+ tumor cells HepG2-HBsAg (QUANTI-Luc)” value stood at 389 pM. Also, the “EC50 of killing of antigen peptide-pulsed T2 cells by PBMCs (LDH release)” value in test [3] was found to be 0.278 pM. In test [4], the “EC50 of killing of HepG2-HBsAg cells by PBMCs (LDH release)” value is 8.83 pM. In test [5], this molecule displayed a Kd of 237 pM, a koff of 0.000145 s⁻¹ and a kon of 613000 M⁻¹ s⁻¹. In the test with CD3D-CD3E-mFc, this molecule registered a dissociation constant (Kd) of 2960 pM, a koff of 0.000175 s⁻¹ and a kon of 59200 M⁻¹ s⁻¹.

B2: TCRm×CD3 bispecific antibody 2N1B5-h4+IMCR (bispecific antibody)
chain 1: B1 chain 1 with Q1E, S11L, A14P, E46V, Q146E, S156L, A159P, E191V
chain 2: not shown
As to B2, the “EC50 of killing of antigen peptide-pulsed T2 cells by PBMCs (LDH release)” value in test [3] was 0.209 pM. The “EC50 of killing of HepG2-HBsAg cells by PBMCs (LDH release)” value in test [4] is 9.52 pM. Moreover, in test [5], the Kd was found to be 531 pM, the koff was found to be 0.00014 s⁻¹ and the kon came out at 263000 M⁻¹ s⁻¹. In the test with CD3D-CD3E-mFc, this molecule yielded a Kd of 2040 pM, a koff of 0.000132 s⁻¹ and a kon of 64700 M⁻¹ s⁻¹.

B3: N1B5-h4-Fc recombinant protein (humanized anti-HLA-A02/HBsAg complex TCRm antibody N1B5-h4) (Fc fusion)
chain: EVQLVESGGGLVQPGGSLRLSCAASDDTYMTNCMGWFRQAPGKERVGVAAIYTGGGRAVYADSVRGRFTISQDNAKNTVYLQMNSLKPEDTAMYYCAADWLGPDMTDIQVLGALPWFNYWGQGTLVTVSS
In test [6], B3 gave a Kd of 191 pM, a koff of 0.000125 s⁻¹ and a kon of 656000 M⁻¹ s⁻¹.

B4: N1B5-Fc recombinant protein (anti-HLA-A02/HBsAg complex TCRm antibody N1B5) (Fc fusion, not shown: a dimerising Fc or GST)
chain: B3 chain with E1Q, L11S, P14A, V46E
In test [7], B4 displayed a Kd of 140 pM, a koff of 9.7e-05 s⁻¹ and a kon of 692000 M⁻¹ s⁻¹.
